The supplement of paper PMC12764529
± gives the half width of the 95% confidence interval.

Experiment: folding stability dG unfold from chymotrypsin proteolysis; higher = more stable
Method in brief: (§1)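 Unfolding free energy was derived, per protease or combined, by relating Bayesian-fitted K50 values from sequencing counts to a sequence-predicted unfolded-state K50 and a shared folded-state K50. The underlying digests exposed cysteine-free mini-proteins under 80 residues, in a PA-tagged cDNA display construct, to trypsin and chymotrypsin at 11 threefold-diluted concentrations and to a no-protease condition. A filter kept only designs with AlphaFold2 dimer inter-PAE above 15.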

Going from “SIEELAKKFPNVTVTVEKTEDGEVKITITVKTSEEQKKELQEKLKELAKKLAEELDLKVEIEIKVLPAPPSA [r9_1099_TrROS_Hall]” to “MPTIRVKIYRDGKLVRELELPAEEVEKMSEEELLEKVRELLEEEKGETYKVEVEIDGKKFTFEIKLPEKEES [r1_477_TrROS_Hall]”, the “folding stability dG unfold” value rises from 3.7 ± 0.38 kcal/mol to 4.8 ± 0.24 kcal/mol.

Compared with “SAGGMLTPEEIERLARELEEAIRRGDRERAEELLEKLEELLKQAEEEGDEELVERLKKLLERAKKALESAGG [r13_137_TrROS_Hall]”, “SAGGSAGGSAGEIDKIKVEVEFEFPVRVKVGDKEYEFLVKVKYTIGPDGKIEVKSIELFPSAGGSAGGSAGG [r11_95_TrMRF]” is higher in “folding stability dG unfold” value: 2.99 ± 0.19 kcal/mol for the first, 4.76 ± 0.38 kcal/mol for the second.

Going from “SAGGSMKTYKLESEEEIEKLIKELSPEKYIVGVKGNPDGTPVVYIFPKSEPEKLKKLGVKEIIPVKSAGGSA [r2_351_JUSTAS]” to “SAGMTVEVEIELPPGMTEEERLEEVKALVEELARALLPPGWKVTVKEIEVEEKDGKLVVKVKIEIEPEESAG [r5_146_TrROS_Hall]”, the “folding stability dG unfold” value rises from -0.109 ± 0.57 kcal/mol to 2.99 ± 0.22 kcal/mol.

Going from “SDTVHIPIDPNDPDEIKDLIKNLPPGWTVHIWWPDKNGEWPVVTIKVKPPPPPPIPPEDLPEEQRKEMKKSA [r9_1103_TrROS]” to “SAGGSAGGSAGGSFSVSVSYDPSTGNIVIRIDLPDGSTITITINPATGEISVSSSSSSSSAGGSAGGSAGGS [r10_127_TrMRF]”, the “folding stability dG unfold” value rises from 0.718 ± 0.11 kcal/mol to 3.83 ± 0.25 kcal/mol.

With “KVFSVDELRELAKKGKLKELLKKNKDVTIVVEEGSPEELKELKALPEVKEIKVVPKEDEEKIKKAKLVIKVS [r1_248_TrROS_Hall]” the “folding stability dG unfold” value was 0.0786 ± 0.69 kcal/mol.

Experiment: folding stability dG unfold (combined trypsin and chymotrypsin); higher = more stable
Method in brief: as §1

“SAGGSAGGSAGGSPEVVPVDHPDRELLLVRFPDSVVLTDPSAPGASRTFPADTDVVVDASAGGSAGGSAGGS [r4_321_TrMRF]” and “SAGGTPIGDGQTGESSTFDEEVTDPVTGEKVKVKVTIPVTIDPETGKTVRTVTITNPLEGKTTTTLTLSAGG [r13_262_JUSTAS]” cannot be ordered by “folding stability dG unfold” value: under -1 kcal/mol for the first, under -1 kcal/mol for the second.

“SAGGSAGGSAGPKPEYIRIKIEMWNPDGNPREHDFTFPPGHKDQIENLADNYGFRVSIEKSAGGSAGGSAGG [r11_603_TrROS]” and “SGPDVPLTPEEVAARIKAELLEKHPIGEVTPVELREFPELGVVEVRLRINVKGPPGETREIDVRLSRERLSA [r9_1002_JUSTAS]” are within error of each other in “folding stability dG unfold” value: -0.281 ± 0.29 kcal/mol for the first, 0.0428 ± 0.21 kcal/mol for the second.

Compared with “SAGGSAGGSAGGDIEINVNANSPEEAKKFLGEFAQEGPAEIKIEVTPPPPPMPPNDPEYKSAGGSAGGSAGG [r7_261_TrROS]”, “SAGGSAGGSAGGSMKVEPLPHPDRPVTVETTPDSITVTDPANPPATTTFSSSSTVSVDSSAGGSAGGSAGGS [r4_321_JUSTAS]” is higher in “folding stability dG unfold” value: under -1 kcal/mol for the first, -0.505 ± 0.44 kcal/mol for the second.

Going from “SAGGSAGGSMVEIDPDNLVLTIVDPETGKAAVITAPPTADGTPVIKDVVVFDPDGNPHTFTVDSAGGSAGGS [r12_952_TrMRF]” to “SAGGSAGGSAGGGMTVVPTLEFFPGTRLVVRPVVVRDAEGRVVEVEPEVTPLPPPTLSLLSAGGSAGGSAGG [r7_135_JUSTAS]”, the “folding stability dG unfold” value falls from 0.13 ± 0.091 kcal/mol to under -1 kcal/mol.

“SAGGSALIVLEGDLDSVVALAKEAGDPNVKVEPVADFNDDPSEPRLYRITIERDGEPDGELLFLDPSAGGSA [r15_428_TrMRF]” and “SAGGSAGGIRIHRDNDKYVIHVPMDPNQPPENIKDILRDLPGLEDPEEIEYVPNPNGQAMIKIPSAGGSAGG [r6_516_TrROS]” cannot be ordered by “folding stability dG unfold” value: under -1 kcal/mol for the first, under -1 kcal/mol for the second.

“SAGGSAGGSAGAAPDETTVTTTVTPSPGTTTVTTTTYTYAPPTNTVTSTTTTTTIPAGTASAGGSAGGSAGG [r11_237_JUSTAS]” and “SAGGGNMKTITVPASAVTSITRSPTNPNTLTITVSGSGATTTTTLPITPETKITEEGDTVTVTIPGLSAGGS [r16_22_JUSTAS]” are within error of each other in “folding stability dG unfold” value: 0.127 ± 0.36 kcal/mol for the first, -0.263 ± 0.096 kcal/mol for the second.

Going from “SAGGSAGGSAGGSATVINIPASSLSEEEIEALAKALEEEDPSIKGPKIEKGDGTYTIVQSAGGSAGGSAGGS [r4_330_JUSTAS]” to “SAGGSAGGSAMPIPALVLVERPLPDGETEEREIPVIVEPDKIDEIIEEAEKEGYKVKEVKASAGGSAGGSAG [r3_453_TrMRF]”, the “folding stability dG unfold” value falls from -0.533 ± 0.23 kcal/mol to under -1 kcal/mol.

“SMPVTFTMKTPENRKKLEEAIKEIEEEYPIKVEEVEKDPKGTYTYKVEMDPEIIEKVKKKLEEAGNVTLESA [r9_472_JUSTAS]” and “SAGGSAGGSAGGEILIFDDNGKRIIVIPIPPENRYRVVVIHENTGIPEVKEAKLEEVLSSAGGSAGGSAGGS [r10_482_TrMRF]” are within error of each other in “folding stability dG unfold” value: -0.822 ± 0.97 kcal/mol for the first, 0.104 ± 0.28 kcal/mol for the second.

Compared with “SAMIKIEIVLPEEDLEKLLESEEVKELAKELEKKTGLKITSIKIEKKEVEVNGEKKKVVVITIEIEPEPSAG [r14_819_TrROS_Hall]”, “SAGGSAGGSAPAEFPIEILEVERNPGNPMVEVGIKIPGDGRYIKIHFPPNGKIDIELVPLPSAGGSAGGSAG [r3_294_TrROS]” is lower in “folding stability dG unfold” value: over 6 kcal/mol for the first, -0.29 ± 0.16 kcal/mol for the second.

“SAGMKFKPGAKVEVYNKKTKKKIVLPVEELRKLAREKFGVETEEERLAEAIKEKAKENGFEIVKIEPVSAGG [r19_67_TrROS_Hall]” and “SAGGSAGGSMPVEVKFTVEKDPSTDLLTVTVTRPGGEVTPITYPDPNNLEAAKAAAEALAKASSAGGSAGGS [r12_1012_JUSTAS]” are within error of each other in “folding stability dG unfold” value: -0.0445 ± 0.44 kcal/mol for the first, -0.2 ± 0.41 kcal/mol for the second.

First: SALINLKKEDVEKLVKALEKEGNYKVKIKPVKVVYKPKDGSKKPIGAVKIEVIDPDNPKSLLDKIKKAGSAG [r14_628_TrMRF]
Second: SAGGSAGGSAVKVIPFPFNEALDLLNSGEPKEIHVVGPPGWYMTVQFNPPDNNIEIDDPVPPSAGGSAGGSA [r18_400_TrROS]
The “folding stability dG unfold” value of the first is lower: under -1 kcal/mol for the first, 0.194 ± 0.14 kcal/mol for the second.

Compared with “SAGGSAGGSAGGMKPGEPVEIKIPVPGNGKKIPIEIPVGMPPEQARKFAKEIAEELEKNHSAGGSAGGSAGG [r7_957_TrROS]”, “SAGGTKYTVSLRPPPTALPSREFTDSPLEIVEALPEDTTEATVTVDNNSTSTTVTFTTKEDLIAAVASSAGG [r13_299_JUSTAS]” is higher in “folding stability dG unfold” value: under -1 kcal/mol for the first, -0.14 ± 0.33 kcal/mol for the second.

“SAGGSANTIMIPFDDLTPDKILEAAEESPDPIMIHNPDNGRFLTVEVEDGGIDDVTWEPFDPEDFGSAGGSA [r15_751_TrROS]” and “SAGGYDKEGKPIRVVEINIPPDQPDTILKFAREEIDNNRWDIIHITSPNQVKWIKQAFPEKGIPIHIQSAGG [r13_353_TrROS]” are within error of each other in “folding stability dG unfold” value: -0.135 ± 0.18 kcal/mol for the first, -0.167 ± 0.38 kcal/mol for the second.

First: SAGGSAPNEEITIPIRIRVENPEDGKPIHEIPIPIKVPKGQTQDQILDQAKNWMEEHGMKIKEIEISAGGSA [r15_195_TrROS]
Second: SAGGSAGGSAGKITIRNPENGYAIKIKFGDKEKTIPIDPDQIDEFLEKLPGIKVEPYPWKSAGGSAGGSAGG [r11_57_TrROS]
The “folding stability dG unfold” value of the first is lower: under -1 kcal/mol for the first, -0.899 ± 0.59 kcal/mol for the second.

Compared with “SAGGSAGGSAGGSGMPQPTTVLTTEYYPPGVVVKKDIVYSPSGGAEEVEVSFYPSPELLSAGGSAGGSAGGS [r4_57_JUSTAS]”, “SAGGSAGGSAGGGSSLVDPEGKPLPPRPEVVTTTGSYYSSLPGDGYYHLEEPVVEPVYPESAGGSAGGSAGG [r7_572_JUSTAS]” is higher in “folding stability dG unfold” value: under -1 kcal/mol for the first, -0.198 ± 0.14 kcal/mol for the second.

First: SAGGSAGGSAGGMTETLDFNGEKVVVTELPPTNTYQVTTTTPGTGVPTTTAARKEEVLTSAGGSAGGSAGGS [r10_482_JUSTAS]
Second: SAGGSAGGSAKEVEVEVEEELPGGYYRATVRLPGEEKPLEVVVKGPREDALKAAEELAKEESAGGSAGGSAG [r3_104_TrMRF]
The “folding stability dG unfold” value of the first is higher: -0.177 ± 0.28 kcal/mol for the first, under -1 kcal/mol for the second.

Going from “SAGGSAIKITKVEYEPNPDGWREIHFKATPGDPDFLDEIAEALPPDNIEPTEVDEKGYYEIRIPRPSAGGSA [r15_386_TrROS]” to “SAGGSAGGMSTISVTVPPNVSVEEVKERLKKENPNSKYEILSVSKGPGTVKAKIAYDPLPEELLSAGGSAGG [r6_623_JUSTAS]”, the “folding stability dG unfold” value falls from -0.291 ± 0.17 kcal/mol to under -1 kcal/mol.

Compared with “SAGGSAGSMSIEEVVEKAKEEGIEVEVTSLPESGLTVVTITKKLPNGEVVESIILEHPEGTTTVLSSAGGSA [r15_1051_JUSTAS]”, “SAGGSAGGSAGGMPVVVINTPSEEEAEKEKAKLEEDPEYKDGPINFIYIPPGTLPENVPLSAGGSAGGSAGG [r7_976_JUSTAS]” is lower in “folding stability dG unfold” value: 0.0134 ± 0.14 kcal/mol for the first, under -1 kcal/mol for the second.

“SAGGSAGGMITIPINTPGLSPAEAAAIKAQLEADGYPAAEVTITASPVPPVPPLGPENIYSNRGSAGGSAGG [r6_246_JUSTAS]” and “SAGGGKIKKPKPIVIRVPKNSIKVGDDVPVAVLAKALGIDPSAKAKVGEVKPPENGDYELVVVEVESSAGGS [r16_165_TrMRF]” cannot be ordered by “folding stability dG unfold” value: under -1 kcal/mol for the first, under -1 kcal/mol for the second.
